The source of these data is article PMC6803476, “Nanodomain Clustering of the Plant Protein Remorin by Solid-State NMR” (Frontiers in Molecular Biosciences, 2019).

This data set deals with the molecule itself. Kind of data set: negative staining electron microscopy; purified protein incubated overnight at 30°C with preformed liposomes (protein/lipid 1/20; DMPC-d54/β-sitosterol 85/15 or DMPC-d54/β-sitosterol/PIP mix 75/15/10), 2% uranyl acetate stain; filaments mostly in samples without PIPs, very few with PIPs.

B1: REM_(86-198), truncated StREM1.3 bearing only the coiled-coil domain and RemCA (domain or fragment, Solanum tuberosum (potato), UniProt P93788 86-198, looked up)
chain: TEKRVSLIKAWEESEKSKAENKAQKKVSAIGAWENSKKANLEAELKKMEEQLEKKKAEYTEKMKNKIALLHKEAEEKRAMIEAKRGEDLLKAEELAAKYRATGTAPKKILGIF
notes: Remorin group 1 isoform 3 (StREM1.3) of potato (Solanum tuberosum), residues 86-198: coiled-coil segment and the C-terminal membrane anchor RemCA; source: E. coli BL21-DE3 (pET24 vector), purified as described in Martinez et al. (2018), HiPrep gel filtration buffer exchange
Regarding B1, the binding result is on record as “binds”.
